This passage reports self-cleavage results from the RNAGym collection of RNA variant scans (doi:10.7554/elife.80360).

Sequences and labels used below:
B1: CPEB3 Ribozyme (parent)
chain: GGGGGCCACAGCAGAAGCGUUCACGUCGCGGCCCCUGUCAGAUUCUGGUGAAUCUGCGAAUUCUGCUGU

Variants of B1 are the subject of this data set. Nature of the data set: self-cleavage, relative activity (ratio to wild type); higher = more cleavage; co-transcriptional.
For G28U A52U, the self-cleavage came to 0.198.
For G28U A52C, the self-cleavage was determined as 0.132.
C29A G68C: the self-cleavage was found to be 0.914.
As to C29A G68U, the self-cleavage was 0.903.
For the variant G28C C32U, the self-cleavage amounted to 0.23.
Under G28C C32A stands 0.181; under G28C C32G, 0.168.
C29A U38A: the self-cleavage came to 0.365.
With C29A U38C the figure was 0.385; with C29A U38G, 0.218; with C29G G48C, 0.698.
With C29G G48A, the self-cleavage was 0.667.
On to C29G G48U, for which the self-cleavage turned out to be 0.602.
Turning to C29A G50A, the self-cleavage was 0.735.
With C29A G50U the figure was 0.747.
As to G28C G68U, the self-cleavage came to 0.221.
With G28C G68A, the self-cleavage was 0.164.
For C29G G37U, the self-cleavage was 0.185.
G28U C29A: the self-cleavage worked out at 0.142.
With G28U C29U, the self-cleavage amounted to 0.174.
With C29G G41A the figure was 0.236; with G28C U69A, 0.18.
With G28A U69A the figure was 0.342; with G28A U69G, 0.357; with G28A U69C, 0.412.
Take G28A U46A: the self-cleavage is 0.184.
Take G28A U46C: the self-cleavage was determined as 0.192.
In the case of G28A U46G, the self-cleavage came to 0.146.
Under C29A A60U stands 0.257; under G28C U55C, 0.162; under G28C U55G, 0.117.
In the case of C29A A51U, the self-cleavage was 0.646.
Consider C29A A51G, for which the self-cleavage was 0.706.
With C29A U53A the figure was 0.46; with C29A U53C, 0.356; with C29A U53G, 0.454.
Take C29A U36C: the self-cleavage turned out to be 0.428.
For the variant C29A U36A, the self-cleavage was determined as 0.215.
C29A C35U: the self-cleavage came out at 0.496.
Regarding C29A C35G, the self-cleavage stood at 0.276.
For C29A A52U, the self-cleavage stood at 0.671.
For the variant C29A A52C, the self-cleavage worked out at 0.64.
With C29A A52G, the self-cleavage stood at 0.77.
On to C29A U49C, for which the self-cleavage stood at 0.809.
Consider C29A U49G, for which the self-cleavage was 0.737.
For the variant G28C C33U, the self-cleavage was determined as 0.165.
In the case of G28C C33A, the self-cleavage was determined as 0.115.
Take G28A U53C: the self-cleavage is 0.154.
As for G28A U53G, the self-cleavage worked out at 0.203.
Take G28U U55A: the self-cleavage is 0.203.
With G28U U55C, the self-cleavage is 0.154.
As to G28A U49C, the self-cleavage is 0.238.
Turning to G28A U49G, the self-cleavage amounted to 0.22.
As to G28U C57U, the self-cleavage is 0.213.
Under G28A G58C stands 0.231.
For the variant G28A G58A, the self-cleavage amounted to 0.189.
Consider G28A G58U, for which the self-cleavage stood at 0.2.
Under C29A G30A stands 0.264; under C29A G30U, 0.216.
In the case of C29A G30C, the self-cleavage is 0.205.
For G28U U49A, the self-cleavage stood at 0.166.
Turning to G28U U49C, the self-cleavage worked out at 0.178.
With G28U U49G the figure was 0.11.
On to G28U C54G, for which the self-cleavage came to 0.158.
For the variant G28U C54A, the self-cleavage came to 0.144.
On to C29G G50U, for which the self-cleavage stood at 0.535.
With C29G G50A, the self-cleavage turned out to be 0.609.
Turning to C29A G65A, the self-cleavage was found to be 0.371.
In the case of C29A G65U, the self-cleavage came to 0.25.
As for C29A G65C, the self-cleavage is 0.392.
In the case of G28U G30U, the self-cleavage turned out to be 0.183.
Regarding G28U G30C, the self-cleavage amounted to 0.166.
Take G28U G30A: the self-cleavage was found to be 0.14.
Consider G28A G65C, for which the self-cleavage worked out at 0.172.
For C29A U43A, the self-cleavage stood at 0.32.
With G28U A60C, the self-cleavage turned out to be 0.226.
For G28U A60G, the self-cleavage worked out at 0.214.
Turning to G28U U36C, the self-cleavage was determined as 0.135.
Regarding G28U G48A, the self-cleavage is 0.255.
On to G28U G68C, for which the self-cleavage was 0.243.
Under C29G C34G stands 0.294; under G28C G56U, 0.17; under C29A U62C, 0.644.
For C29A U62A, the self-cleavage was determined as 0.409.
Consider G28U A59G, for which the self-cleavage stood at 0.23.
Under G28U A59U stands 0.16; under G28C U62C, 0.136; under G28C U62A, 0.194.
In the case of C29G C45A, the self-cleavage was determined as 0.402.
As to C29G C45G, the self-cleavage amounted to 0.407.
Under C29A U69C stands 0.973.
Take G28C U49C: the self-cleavage is 0.145.
With C29G A59C, the self-cleavage amounted to 0.272.
Under C29G A59U stands 0.203.
For the variant G28C C66G, the self-cleavage turned out to be 0.141.
On to G28C C66A, for which the self-cleavage came out at 0.163.
G28C C66U: the self-cleavage was determined as 0.211.
As to G28U C33G, the self-cleavage was 0.196.
In the case of G28U C33A, the self-cleavage was determined as 0.21.
Consider C29A C63G, for which the self-cleavage turned out to be 0.286.
With C29A C63A the figure was 0.355.
For the variant G28U G50A, the self-cleavage stood at 0.237.
On to G28U G50C, for which the self-cleavage amounted to 0.183.
On to C29A C45U, for which the self-cleavage was 0.731.
On to C29A U44A, for which the self-cleavage was 0.55.
For the variant G28U C35A, the self-cleavage was 0.172.
Consider G28U C35G, for which the self-cleavage is 0.14.
In the case of C29G G47C, the self-cleavage is 0.558.
Under C29G G47A stands 0.553.
In the case of C29G G47U, the self-cleavage is 0.612.
G28C U53A: the self-cleavage is 0.156.
G28C U53C: the self-cleavage was found to be 0.145.
In the case of G28C U53G, the self-cleavage is 0.196.
As to G28C C63U, the self-cleavage was determined as 0.192.
G28C C57U: the self-cleavage is 0.23.
As for G28C C57G, the self-cleavage was 0.191.
Consider G28C C57A, for which the self-cleavage was 0.207.
Regarding C29G C39A, the self-cleavage was 0.213.
On to C29G G30A, for which the self-cleavage came to 0.173.
With C29G G30C the figure was 0.271.
For the variant C29A C66U, the self-cleavage came to 0.664.
For the variant C29A C66G, the self-cleavage came out at 0.365.
Under G28C G65A stands 0.161.
For G28C G65C, the self-cleavage turned out to be 0.19.
As for C29A A59G, the self-cleavage was 0.715.
For G28U U44G, the self-cleavage stood at 0.175.
In the case of G28U U69G, the self-cleavage was 0.254.
Take G28U C45U: the self-cleavage was 0.168.
With G28U C45A, the self-cleavage stood at 0.189.
With G28A U67C, the self-cleavage was 0.307.
With G28A U67G the figure was 0.232; with G28A U67A, 0.202; with G28U A51C, 0.157.
As to G28U A51G, the self-cleavage is 0.196.
For G28U C39G, the self-cleavage worked out at 0.206.
With G28U C39A, the self-cleavage came out at 0.103.
Under G28C A51U stands 0.165; under G28C A51C, 0.119.
As for G28C A51G, the self-cleavage worked out at 0.247.
For the variant G28C A42U, the self-cleavage was 0.25.
As for G28U C32A, the self-cleavage is 0.236.
G28C U64G: the self-cleavage is 0.116.
On to G28C U64A, for which the self-cleavage came to 0.222.
On to G28C G30C, for which the self-cleavage worked out at 0.143.
Consider G28C G30A, for which the self-cleavage was found to be 0.22.
Take C29G A60C: the self-cleavage came out at 0.108.
Regarding C29G A60G, the self-cleavage worked out at 0.337.
Turning to C29G A60U, the self-cleavage is 0.204.
Turning to G28C A60U, the self-cleavage turned out to be 0.19.
In the case of G28C A60G, the self-cleavage came out at 0.168.
Take C29G A40U: the self-cleavage was 0.277.
Under C29G A40C stands 0.157; under C29G A40G, 0.457.
Regarding G28A U36C, the self-cleavage worked out at 0.128.
Under G28A U36G stands 0.133.
In the case of G28C A52U, the self-cleavage was determined as 0.197.
G28C A40C: the self-cleavage came to 0.218.
As to G28C A40G, the self-cleavage is 0.211.
Under G28C A40U stands 0.215; under C29G C35A, 0.234; under C29G C35G, 0.301.
With C29G C35U the figure was 0.307; with G28A U44A, 0.195; with G28A U44C, 0.176.
On to G28A U44G, for which the self-cleavage was found to be 0.136.
For G28C C54G, the self-cleavage came to 0.155.
As to G28C C54U, the self-cleavage came out at 0.218.
